Experimental data reported in patent US20070265350.

Legend:
His-Cdc42 = His-Cdc42 (UniProt P60953)
Chain of His-Cdc42 (P60953 whole entry, looked up): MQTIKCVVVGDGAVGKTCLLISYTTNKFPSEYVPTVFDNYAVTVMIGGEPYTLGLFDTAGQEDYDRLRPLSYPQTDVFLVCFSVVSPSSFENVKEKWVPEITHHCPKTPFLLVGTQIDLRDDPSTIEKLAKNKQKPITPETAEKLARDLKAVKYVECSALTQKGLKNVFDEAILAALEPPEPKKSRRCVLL

Chain of Bovine copper/zinc superoxide dismutase (SOD1), native (chain, as listed by the source): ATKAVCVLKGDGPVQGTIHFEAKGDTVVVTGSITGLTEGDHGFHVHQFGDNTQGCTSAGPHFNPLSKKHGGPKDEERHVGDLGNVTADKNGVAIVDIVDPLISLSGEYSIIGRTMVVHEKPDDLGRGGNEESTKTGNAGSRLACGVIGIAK
Chain of Demetalated bovine SOD1 (chain, as listed by the source): as above

| Substance | Rac1 GTPase assay (rate of 32Pi release from γP32-GTP) (Histidine-tagged Rac1) | Cdc42 GTPase assay (rate of 32Pi release from γP32-GTP) (His-Cdc42) |
| --- | --- | --- |
| Demetalated bovine SOD1 | also did not inhibit Rac1 GTPase activity (FIG. 6B) |  |
| Bovine copper/zinc superoxide dismutase (SOD1), native |  | The ability of SOD1 to inhibit GTP hydrolysis was also specific for Rac1 and was not observed with the closely related small GTPase Cdc42 |
